Experimental data as given in publication PMC10786891, “Massively parallel profiling of RNA-targeting CRISPR-Cas13d”.

T1: EsCas13d, nuclease-dead (Eubacterium siraeum, UniProt B0MS50, R295A;H300A;R849A;H854A)
T1 sequence: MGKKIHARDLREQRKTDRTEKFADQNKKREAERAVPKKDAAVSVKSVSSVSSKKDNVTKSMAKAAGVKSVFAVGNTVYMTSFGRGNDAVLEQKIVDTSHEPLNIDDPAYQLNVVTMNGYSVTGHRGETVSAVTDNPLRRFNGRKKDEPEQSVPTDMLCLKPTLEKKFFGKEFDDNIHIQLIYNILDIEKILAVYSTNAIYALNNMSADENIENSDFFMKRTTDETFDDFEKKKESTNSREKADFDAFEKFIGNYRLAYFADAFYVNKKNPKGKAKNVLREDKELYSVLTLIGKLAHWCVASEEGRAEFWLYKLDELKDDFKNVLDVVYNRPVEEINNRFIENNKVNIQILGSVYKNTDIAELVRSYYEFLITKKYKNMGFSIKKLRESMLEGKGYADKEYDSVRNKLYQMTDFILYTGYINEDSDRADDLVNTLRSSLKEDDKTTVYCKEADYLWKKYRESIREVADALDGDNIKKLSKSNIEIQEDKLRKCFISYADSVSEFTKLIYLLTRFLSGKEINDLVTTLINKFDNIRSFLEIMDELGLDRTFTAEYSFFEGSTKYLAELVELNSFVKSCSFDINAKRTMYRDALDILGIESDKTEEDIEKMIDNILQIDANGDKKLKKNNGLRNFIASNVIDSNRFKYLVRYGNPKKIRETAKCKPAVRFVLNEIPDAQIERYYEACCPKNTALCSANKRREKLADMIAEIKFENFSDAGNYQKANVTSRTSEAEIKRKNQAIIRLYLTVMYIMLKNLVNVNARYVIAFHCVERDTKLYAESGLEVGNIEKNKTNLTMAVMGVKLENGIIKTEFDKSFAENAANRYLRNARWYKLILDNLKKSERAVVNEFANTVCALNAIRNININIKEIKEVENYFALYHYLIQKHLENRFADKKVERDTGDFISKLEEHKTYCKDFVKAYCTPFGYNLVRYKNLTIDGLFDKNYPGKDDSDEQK


Target: T1, EsCas13d, nuclease-dead
Assay: crRNA (strand 1, pre-loaded); Mg2+; 40 mM Tris-HCl pH 7.5, 150 mM NaCl, 6 mM MgCl2, 1 mM DTT, 0.1% Tween-20, 0.2 mg/ml BSA; 25 C; 10 min per concentration, then washed
Details: tags: His6-TwinStrep-SUMO cleaved; N-terminal SNAP kept (SNAP-Surface 488); label: 3' end held by stalled T7 RNA polymerase

| Binder | Kd [nM] |
| --- | --- |
| target 2 MT 5'PFS UAU 3'PFS UAG (mixed) RNA 1: CACCCGUGCAAAAUUGCAGGGGUCUAAAACCUUCUCCAAAUUGUUUCAUCCU RNA 2: GGGAAUGGAUCCACAUCUACGAAUUCUAUAGGAUGAAACAAUUUGGAGAAGUAGAGAUCGGAAGAGCACACGU | 34 ± 7 |
| target 2 MT 5'PFS UGU 3'PFS ACG (mixed) RNA 1: CACCCGUGCAAAAUUGCAGGGGUCUAAAACCUUCUCCAAAUUGUUUCAUCCU RNA 2: GGGAAUGGAUCCACAUCUACGAAUUCUGUAGGAUGAAACAAUUUGGAGAAGACGAGAUCGGAAGAGCACACGU | 15 ± 1.9 |
| target 2 MT 5'PFS GAG 3'PFS UGA (mixed) RNA 1: CACCCGUGCAAAAUUGCAGGGGUCUAAAACCUUCUCCAAAUUGUUUCAUCCU RNA 2: GGGAAUGGAUCCACAUCUACGAAUUCGAGAGGAUGAAACAAUUUGGAGAAGUGAAGAUCGGAAGAGCACACGU | 9.5 ± 1.8 |
| target 2 MT 5'PFS AUA 3'PFS ACA (mixed) RNA 1: CACCCGUGCAAAAUUGCAGGGGUCUAAAACCUUCUCCAAAUUGUUUCAUCCU RNA 2: GGGAAUGGAUCCACAUCUACGAAUUCAUAAGGAUGAAACAAUUUGGAGAAGACAAGAUCGGAAGAGCACACGU | 6.9 ± 1.6 |
| target 2 MT 5'PFS GAA 3'PFS ACA (mixed) RNA 1: CACCCGUGCAAAAUUGCAGGGGUCUAAAACCUUCUCCAAAUUGUUUCAUCCU RNA 2: GGGAAUGGAUCCACAUCUACGAAUUCGAAAGGAUGAAACAAUUUGGAGAAGACAAGAUCGGAAGAGCACACGU | 12 ± 4 |
| target 2 MT 5'PFS GAA 3'PFS ACG (mixed) RNA 1: CACCCGUGCAAAAUUGCAGGGGUCUAAAACCUUCUCCAAAUUGUUUCAUCCU RNA 2: GGGAAUGGAUCCACAUCUACGAAUUCGAAAGGAUGAAACAAUUUGGAGAAGACGAGAUCGGAAGAGCACACGU | 11 ± 1.3 |
| target 2 MT 5'PFS GGC 3'PFS AUA (mixed) RNA 1: CACCCGUGCAAAAUUGCAGGGGUCUAAAACCUUCUCCAAAUUGUUUCAUCCU RNA 2: GGGAAUGGAUCCACAUCUACGAAUUCGGCAGGAUGAAACAAUUUGGAGAAGAUAAGAUCGGAAGAGCACACGU | 10.8 ± 1 |
| target 2 MT 5'PFS UUU 3'PFS UUA (mixed) RNA 1: CACCCGUGCAAAAUUGCAGGGGUCUAAAACCUUCUCCAAAUUGUUUCAUCCU RNA 2: GGGAAUGGAUCCACAUCUACGAAUUCUUUAGGAUGAAACAAUUUGGAGAAGUUAAGAUCGGAAGAGCACACGU | 9.9 ± 1.3 |
| target 2 MT 5'PFS UGC 3'PFS ACA (mixed) RNA 1: CACCCGUGCAAAAUUGCAGGGGUCUAAAACCUUCUCCAAAUUGUUUCAUCCU RNA 2: GGGAAUGGAUCCACAUCUACGAAUUCUGCAGGAUGAAACAAUUUGGAGAAGACAAGAUCGGAAGAGCACACGU | 17 ± 4 |
| target 2 MT 5'PFS GGC 3'PFS AUC (mixed) RNA 1: CACCCGUGCAAAAUUGCAGGGGUCUAAAACCUUCUCCAAAUUGUUUCAUCCU RNA 2: GGGAAUGGAUCCACAUCUACGAAUUCGGCAGGAUGAAACAAUUUGGAGAAGAUCAGAUCGGAAGAGCACACGU | 13.2 ± 1.1 |
| target 2 MT 5'PFS GAG 3'PFS UGU (mixed) RNA 1: CACCCGUGCAAAAUUGCAGGGGUCUAAAACCUUCUCCAAAUUGUUUCAUCCU RNA 2: GGGAAUGGAUCCACAUCUACGAAUUCGAGAGGAUGAAACAAUUUGGAGAAGUGUAGAUCGGAAGAGCACACGU | 13.5 ± 1.7 |
| target 2 MT 5'PFS GAG 3'PFS UGC (mixed) RNA 1: CACCCGUGCAAAAUUGCAGGGGUCUAAAACCUUCUCCAAAUUGUUUCAUCCU RNA 2: GGGAAUGGAUCCACAUCUACGAAUUCGAGAGGAUGAAACAAUUUGGAGAAGUGCAGAUCGGAAGAGCACACGU | 7.1 ± 0.7 |
| target 2 MT 5'PFS UGU 3'PFS ACA (mixed) RNA 1: CACCCGUGCAAAAUUGCAGGGGUCUAAAACCUUCUCCAAAUUGUUUCAUCCU RNA 2: GGGAAUGGAUCCACAUCUACGAAUUCUGUAGGAUGAAACAAUUUGGAGAAGACAAGAUCGGAAGAGCACACGU | 14.9 ± 3.5 |
| target 2 MT 5'PFS UGU 3'PFS ACU (mixed) RNA 1: CACCCGUGCAAAAUUGCAGGGGUCUAAAACCUUCUCCAAAUUGUUUCAUCCU RNA 2: GGGAAUGGAUCCACAUCUACGAAUUCUGUAGGAUGAAACAAUUUGGAGAAGACUAGAUCGGAAGAGCACACGU | 28 ± 12 |
| target 2 MT 5'PFS CUA 3'PFS UUA (mixed) RNA 1: CACCCGUGCAAAAUUGCAGGGGUCUAAAACCUUCUCCAAAUUGUUUCAUCCU RNA 2: GGGAAUGGAUCCACAUCUACGAAUUCCUAAGGAUGAAACAAUUUGGAGAAGUUAAGAUCGGAAGAGCACACGU | 1.88 ± 0.26 |
| target 2 MT 5'PFS AUA 3'PFS ACG (mixed) RNA 1: CACCCGUGCAAAAUUGCAGGGGUCUAAAACCUUCUCCAAAUUGUUUCAUCCU RNA 2: GGGAAUGGAUCCACAUCUACGAAUUCAUAAGGAUGAAACAAUUUGGAGAAGACGAGAUCGGAAGAGCACACGU | 14 ± 5 |
| target 2 MT 5'PFS CUA 3'PFS UUC (mixed) RNA 1: CACCCGUGCAAAAUUGCAGGGGUCUAAAACCUUCUCCAAAUUGUUUCAUCCU RNA 2: GGGAAUGGAUCCACAUCUACGAAUUCCUAAGGAUGAAACAAUUUGGAGAAGUUCAGAUCGGAAGAGCACACGU | 3.1 ± 0.9 |
| target 2 MT 5'PFS AUA 3'PFS ACC (mixed) RNA 1: CACCCGUGCAAAAUUGCAGGGGUCUAAAACCUUCUCCAAAUUGUUUCAUCCU RNA 2: GGGAAUGGAUCCACAUCUACGAAUUCAUAAGGAUGAAACAAUUUGGAGAAGACCAGAUCGGAAGAGCACACGU | 10.7 ± 1.8 |
| target 2 MT 5'PFS UGC 3'PFS ACU (mixed) RNA 1: CACCCGUGCAAAAUUGCAGGGGUCUAAAACCUUCUCCAAAUUGUUUCAUCCU RNA 2: GGGAAUGGAUCCACAUCUACGAAUUCUGCAGGAUGAAACAAUUUGGAGAAGACUAGAUCGGAAGAGCACACGU | ~49 |
| target 2 MT 5'PFS UUU 3'PFS UUU (mixed) RNA 1: CACCCGUGCAAAAUUGCAGGGGUCUAAAACCUUCUCCAAAUUGUUUCAUCCU RNA 2: GGGAAUGGAUCCACAUCUACGAAUUCUUUAGGAUGAAACAAUUUGGAGAAGUUUAGAUCGGAAGAGCACACGU | 20 ± 4 |
| target 2 MT 5'PFS CUA 3'PFS UUU (mixed) RNA 1: CACCCGUGCAAAAUUGCAGGGGUCUAAAACCUUCUCCAAAUUGUUUCAUCCU RNA 2: GGGAAUGGAUCCACAUCUACGAAUUCCUAAGGAUGAAACAAUUUGGAGAAGUUUAGAUCGGAAGAGCACACGU | 2.61 ± 0.28 |
| target 2 MT 5'PFS GCC 3'PFS AUU (mixed) RNA 1: CACCCGUGCAAAAUUGCAGGGGUCUAAAACCUUCUCCAAAUUGUUUCAUCCU RNA 2: GGGAAUGGAUCCACAUCUACGAAUUCGCCAGGAUGAAACAAUUUGGAGAAGAUUAGAUCGGAAGAGCACACGU | 10.7 ± 1.3 |
| target 2 MT 5'PFS GGC 3'PFS AUU (mixed) RNA 1: CACCCGUGCAAAAUUGCAGGGGUCUAAAACCUUCUCCAAAUUGUUUCAUCCU RNA 2: GGGAAUGGAUCCACAUCUACGAAUUCGGCAGGAUGAAACAAUUUGGAGAAGAUUAGAUCGGAAGAGCACACGU | 12.4 ± 1.3 |
| target 2 MT 5'PFS GGC 3'PFS AUG (mixed) RNA 1: CACCCGUGCAAAAUUGCAGGGGUCUAAAACCUUCUCCAAAUUGUUUCAUCCU RNA 2: GGGAAUGGAUCCACAUCUACGAAUUCGGCAGGAUGAAACAAUUUGGAGAAGAUGAGAUCGGAAGAGCACACGU | 15.2 ± 1.7 |
| target 1 U8C,G12A (mixed) RNA 1: CACCCGUGCAAAAAUGCAGGGGUCUAAAACUGAGCGGAUAACCUCUCUAUGG RNA 2: GGGAAUGGAUCCACAUCUACGAAUUCGUACCAUAGAGAGAUUACCCGCUCACCGAGAUCGGAAGAGCACACGU | 12.5 ± 1 |
| target 1 C7G,U11G (mixed) RNA 1: CACCCGUGCAAAAAUGCAGGGGUCUAAAACUGAGCGGAUAACCUCUCUAUGG RNA 2: GGGAAUGGAUCCACAUCUACGAAUUCGUACCAUAGAGAGGGUAUGCGCUCACCGAGAUCGGAAGAGCACACGU | 24.7 ± 1.5 |
| target 1 G12A,A14U (mixed) RNA 1: CACCCGUGCAAAAAUGCAGGGGUCUAAAACUGAGCGGAUAACCUCUCUAUGG RNA 2: GGGAAUGGAUCCACAUCUACGAAUUCGUACCAUAGAGUGAUUAUCCGCUCACCGAGAUCGGAAGAGCACACGU | 26.3 ± 1.7 |
| target 1 insC 3' of 8,insC 3' of 3 (mixed) RNA 1: CACCCGUGCAAAAAUGCAGGGGUCUAAAACUGAGCGGAUAACCUCUCUAUGG RNA 2: GGGAAUGGAUCCACAUCUACGAAUUCGUACCAUAGAGAGGUUAUCCCGCUCCACCGAGAUCGGAAGAGCACACGU | 13.3 ± 0.7 |
